From the supplement of paper PMC5998384 come the findings set out here.

The subject of series [1] is HeLa Kyoto. The series can be described thus: solubility in G1/S (NP-40 vs SDS abundance) (log2 ratio); higher = more soluble. The following applies: cell cycle stage: G1/S.
Series [2] relates to HeLa Kyoto. The series can be described thus: thermal stability score vs G1/S (z-score of summed log2 fold changes over temperatures); higher = more thermally stable than in G1/S.
The test system of series [3] is HeLa Kyoto. The series can be described thus: solubility change mitosis vs G1/S (difference of NP-40 vs SDS log2 ratios) (log2 ratio difference); higher = more soluble in mitosis.
[4] abbreviates: cell cycle stage: early G1 (4.5 h after nocodazole release).
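Wherever solubility change mitosis vs G1/S (difference of NP-40 vs SDS log2 ratios) is given: synchronized HeLa Kyoto cells (double thymidine block for G1/S, nocodazole release for mitosis), protein amounts in NP-40 versus SDS lysates quantified by mass spectrometry, three biological replicates.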
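Wherever solubility in G1/S (NP-40 vs SDS abundance) is given: HeLa Kyoto cells arrested at G1/S by double thymidine block, proteins quantified by TMT10plex mass spectrometry in mild NP-40 versus SDS extracts, three biological replicates.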
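Wherever thermal stability score vs G1/S (z-score of summed log2 fold changes over temperatures) is given: synchronized HeLa Kyoto cells, proteins quantified by TMT10plex mass spectrometry, three biological replicates, mitosis taken 0.5 h after nocodazole release, G1/S directly after double thymidine block.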

As for “MSSMWSEYTIGGVKIYFPYKAYPSQLAMMNSILRGLNSKQHCLLESPTGSGKSLALLCSALAWQQSLSGKPADEGVSEKAEVQLSCCCACHSKDFTNNDMNQGTSRHFNYPSTPPSERNGTSSTCQDSPEKTTLAAKLSAKKQASIYRDENDDFQVEKKRIRPLETTQQIRKRHCFGTEVHNLDAKVDSGKTVKLNSPLEKINSFSPQKPPGHCSRCCCSTKQGNSQESSNTIKKDHTGKSKIPKIYFGTRTHKQIAQITRELRRTAYSGVPMTILSSRDHTCVHPEVVGNFNRNEKCMELLDGKNGKSCYFYHGVHKISDQHTLQTFQGMCKAWDIEELVSLGKKLKACPYYTARELIQDADIIFCPYNYLLDAQIRESMDLNLKEQVVILDEAHNIEDCARESASYSVTEVQLRFARDELDSMVNNNIRKKDHEPLRAVCCSLINWLEANAEYLVERDYESACKIWSGNEMLLTLHKMGITTATFPILQGHFSAVLQKEEKISPIYGKEEAREVPVISASTQIMLKGLFMVLDYLFRQNSRFADDYKIAIQQTYSWTNQIDISDKNGLLVLPKNKKRSRQKTAVHVLNFWCLNPAVAFSDINGKVQTIVLTSGTLSPMKSFSSELGVTFTIQLEANHIIKNSQVWVGTIGSGPKGRNLCATFQNTETFEFQDEVGALLLSVCQTVSQGILCFLPSYKLLEKLKERWLSTGLWHNLELVKTVIVEPQGGEKTNFDELLQVYYDAIKYKGEKDGALLVAVCRGKVSEGLDFSDDNARAVITIGIPFPNVKDLQVELKRQYNDHHSKLRGLLPGRQWYEIQAYRALNQALGRCIRHRNDWGALILVDDRFRNNPSRYISGLSKWVRQQIQHHSTFESALESLAEFSKKHQKVLNVSIKDRTNIQDNESTLEVTSLKYSTSPYLLEAASHLSPENFVEDEAKICVQELQCPKIITKNSPLPSSIISRKEKNDPVFLEEAGKAEKIVISRSTSPTFNKQTKRVSWSSFNSLGQYFTGKIPKATPELGSSENSASSPPRFKTEKMESKTVLPFTDKCESSNLTVNTSFGSCPQSETIISSLKIDATLTRKNHSEHPLCSEEALDPDIELSLVSEEDKQSTSNRDFETEAEDESIYFTPELYDPEDTDEEKNDLAETDRGNRLANNSDCILAKDLFEIRTIKEVDSAREVKAEDCIDTKLNGILHIEESKIDDIDGNVKTTWINELELGKTHEIEIKNFKPSPSKNKGMFPGFK [BRIP1]”, the “solubility in G1/S (log2)” value in the series with HeLa Kyoto [1] is -0.0862. Moreover, the thermal stability score is 0.36 in the series with HeLa Kyoto [2] (setting [4]) and 1.88 with HeLa Kyoto [2] (cell cycle stage: mitosis). Moreover, in the series with HeLa Kyoto [3], the “solubility change mitosis (log2)” value is -0.00076.
The matching figures for “MSYYQRPFSPSAYSLPASLNSSIVMQHGTSLDSTDTYPQHAQSLDGTTSSSIPLYRSSEEEKRVTVIKAPHYPGIGPVDESGIPTAIRTTVDRPKDWYKTMFKQIHMVHKPDDDTDMYNTPYTYNAGLYNPPYSAQSHPAAKTQTYRPLSKSHSDNSPNAFKDASSPVPPPHVPPPVPPLRPRDRSSTEKHDWDPPDRKVDTRKFRSEPRSIFEYEPGKSSILQHERPASLYQSSIDRSLERPMSSASMASDFRKRRKSEPAVGPPRGLGDQSASRTSPGRVDLPGSSTTLTKSFTSSSPSSPSRAKGGDDSKICPSLCSYSGLNGNPSSELDYCSTYRQHLDVPRDSPRAISFKNGWQMARQNAEIWSSTEETVSPKIKSRSCDDLLNDDCDSFPDPKVKSESMGSLLCEEDSKESCPMAWGSPYVPEVRSNGRSRIRHRSARNAPGFLKMYKKMHRINRKDLMNSEVICSVKSRILQYESEQQHKDLLRAWSQCSTEEVPRDMVPTRISEFEKLIQKSKSMPNLGDDMLSPVTLEPPQNGLCPKRRFSIEYLLEEENQSGPPARGRRGCQSNALVPIHIEVTSDEQPRAHVEFSDSDQDGVVSDHSDYIHLEGSSFCSESDFDHFSFTSSESFYGSSHHHHHHHHHHHRHLISSCKGRCPASYTRFTTMLKHERARHENTEEPRRQEMDPGLSKLAFLVSPVPFRRKKNSAPKKQTEKAKCKASVFEALDSALKDICDQIKAEKKRGSLPDNSILHRLISELLPDVPERNSSLRALRRSPLHQPLHPLPPDGAIHCPPYQNDCGRMPRSASFQDVDTANSSCHHQDRGGALQDRESPRSYSSTLTDMGRSAPRERRGTPEKEKLPAKAVYDFKAQTSKELSFKKGDTVYILRKIDQNWYEGEHHGRVGIFPISYVEKLTPPEKAQPARPPPPAQPGEIGEAIAKYNFNADTNVELSLRKGDRVILLKRVDQNWYEGKIPGTNRQGIFPVSYVEVVKKNTKGAEDYPDPPIPHSYSSDRIHSLSSNKPQRPVFTHENIQGGGEPFQALYNYTPRNEDELELRESDVIDVMEKCDDGWFVGTSRRTKFFGTFPGNYVKRL [SORBS2]”: -0.773, -2.13, 0.899 and 0.819.
The matching figures for “MTSAAEIKKPPVAPKPKFVVANNKPAPPPIAPKPDIVISSVPQSTKKMKPAIAPKPKVLKTSPVREIGQSPSRKIMLNLEGHKQELAESTDNFNCKYEGNQSNDYISPMCSCSSECIHKLGHRENLCVKQLVLEPLEMNENLENSKIDETLTIKTRSKCDLYGEKAKNQGGVVLKASVLEEELKDALIHQMPPFISAQKHRPTDSPEMNGGCNSNGQFRIEFADLSPSPSSFEKVPDHHSCHLQLPSDECEHFETCQDDSEKSNNCFQSSELEALENGKRSTLISSDGVSKKSEVKDLGPLEIHLVPYTPKFPTPKPRKTRTARLLRQKCVDTPSESTEEPGNSDSSSSCLTENSLKINKISVLHQNVLCKQEQVDKMKLGNKSELNMESNSDAQDLVNSQKAMCNETTSFEKMAPSFDKDSNLSSDSTTVDGSSMSLAVDEGTGFIRCTVSMSLPKQLKLTCNEHLQSGRNLGVSAPQMQKESVIKEENSLRIVPKKPQRHSLPATGVLKKAASEELLEKSSYPSSEEKSSEKSLERNHLQHLCAQNRGVSSSFDMPKRASEKPVWKLPHPILPFSGNPEFLKSVTVSSNSEPSTALTKPRAKSLSAMDVEKCTKPCKDSTKKNSFKKLLSMKLSICFMKSDFQKFWSKSSQLGDTTTGHLSSGEQKGIESDWQGLLVGEEKRSKPIKAYSTENYSLESQKKRKKSRGQTSAANGLRAESLDDQMLSRESSSQAPYKSVTSLCAPEYENIRHYEEIPEYENLPFIMAIRKTQELEWQNSSSMEDADANVYEVEEPYEAPDGQLQLGPRHQHSSSGASQEEQNDLGLGDLPSDEEEIINSSDEDDVSSESSKGEPDPLEDKQDEDNGMKSKVHHIAKEIMSSEKVFVDVLKLLHIDFRDAVAHASRQLGKPVIEDRILNQILYYLPQLYELNRDLLKELEERMLHWTEQQRIADIFVKKGPYLKMYSTYIKEFDKNIALLDEQCKKNPGFAAVVREFEMSPRCANLALKHYLLKPVQRIPQYRLLLTDYLKNLIEDAGDYRDTQDALAVVIEVANHANDTMKQGDNFQKLMQIQYSLNGHHEIVQPGRVFLKEGILMKLSRKVMQPRMFFLFNDALLYTTPVQSGMYKLNNMLSLAGMKVRKPTQEAYQNELKIESVERSFILSASSATERDEWLEAISRAIEEYAKKRITFCPSRSLDEADSENKEEVSPLGSKAPIWIPDTRATMCMICTSEFTLTWRRHHCRACGKIVCQACSSNKYGLDYLKNQPARVCEHCFQELQKLDHQHSPRIGSPGNHKSPSSALSSVLHSIPSGRKQKKIPAALKEVSANTEDSSMSGYLYRSKGNKKPWKHFWFVIKNKVLYTYAASEDVAALESQPLLGFTVIQVKDENSESKVFQLLHKNMLFYVFKAEDAHSAQKWIEAFQEGTIL [FGD6]”: -0.0552, -0.173, 0.213 and 0.03.
The matching figures for “MTTEQRRSLQAFQDYIRKTLDPTYILSYMAPWFREEEVQYIQAEKNNKGPMEAATLFLKFLLELQEEGWFRGFLDALDHAGYSGLYEAIESWDFKKIEKLEEYRLLLKRLQPEFKTRIIPTDIISDLSECLINQECEEILQICSTKGMMAGAEKLVECLLRSDKENWPKTLKLALEKERNKFSELWIVEKGIKDVETEDLEDKMETSDIQIFYQEDPECQNLSENSCPPSEVSDTNLYSPFKPRNYQLELALPAMKGKNTIICAPTGCGKTFVSLLICEHHLKKFPQGQKGKVVFFANQIPVYEQQKSVFSKYFERHGYRVTGISGATAENVPVEQIVENNDIIILTPQILVNNLKKGTIPSLSIFTLMIFDECHNTSKQHPYNMIMFNYLDQKLGGSSGPLPQVIGLTASVGVGDAKNTDEALDYICKLCASLDASVIATVKHNLEELEQVVYKPQKFFRKVESRISDKFKYIIAQLMRDTESLAKRICKDLENLSQIQNREFGTQKYEQWIVTVQKACMVFQMPDKDEESRICKALFLYTSHLRKYNDALIISEHARMKDALDYLKDFFSNVRAAGFDEIEQDLTQRFEEKLQELESVSRDPSNENPKLEDLCFILQEEYHLNPETITILFVKTRALVDALKNWIEGNPKLSFLKPGILTGRGKTNQNTGMTLPAQKCILDAFKASGDHNILIATSVADEGIDIAQCNLVILYEYVGNVIKMIQTRGRGRARGSKCFLLTSNAGVIEKEQINMYKEKMMNDSILRLQTWDEAVFREKILHIQTHEKFIRDSQEKPKPVPDKENKKLLCRKCKALACYTADVRVIEECHYTVLGDAFKECFVSRPHPKPKQFSSFEKRAKIFCARQNCSHDWGIHVKYKTFEIPVIKIESFVVEDIATGVQTLYSKWKDFHFEKIPFDPAEMSK [DDX58]”: -0.211, 0.775, 0.756 and -0.199.
